Assay [1] has as its target T1, Ins 5 type mutant CALR protein on UT-7/TPO CALR Ins 5 cells (UniProt P27797 18-417).
T1 sequence (looked up): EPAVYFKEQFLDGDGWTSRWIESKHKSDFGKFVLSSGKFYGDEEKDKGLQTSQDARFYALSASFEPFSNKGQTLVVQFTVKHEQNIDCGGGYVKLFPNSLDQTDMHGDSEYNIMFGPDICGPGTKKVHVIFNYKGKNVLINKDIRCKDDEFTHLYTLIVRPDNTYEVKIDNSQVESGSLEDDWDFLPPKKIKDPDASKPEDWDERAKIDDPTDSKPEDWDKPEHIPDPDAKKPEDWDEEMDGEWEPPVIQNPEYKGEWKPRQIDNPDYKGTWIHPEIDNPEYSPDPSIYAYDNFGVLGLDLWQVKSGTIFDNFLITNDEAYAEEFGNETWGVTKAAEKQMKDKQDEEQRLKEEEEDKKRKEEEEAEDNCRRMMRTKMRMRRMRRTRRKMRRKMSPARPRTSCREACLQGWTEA
In words: cell-based or functional assay.

Assay [2] concerns the target T2, protein having an Fc region and a His-tag added to the N-terminus of SEQ ID NO: 1.
T2 construct: also called mutant CALR protein (antigen of the BLItz measurement); not shown: Fc region and His-tag at the N-terminus
T2 chain: RRMMRTKMRMRRM
Kind of assay: BLItz biolayer interferometry, Fc/His-SEQ ID NO: 1 protein on the biosensor. The procedure, abridged:
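The Fc/His-tagged protein was loaded at 0.1 mg/mL onto Anti-Penta-HIS or Protein A biosensors. Antibodies were run at 500, 100 and 50 nM by biolayer interferometry, and the dissociation constant was derived from these binding curves.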

Numbering of substitutions follows the chain as printed.

The source of these data is patent publication US20240092890A1 (JUNTENDO EDUCATIONAL FOUNDATION, published 2024).

B1: Antibody 9 (bispecific antibody)
chain: QVQLQQSGAELVKPGSSVKISCKASGYTFTRNFIHWIKQQPGNGLEWIGWIFPGDGDTEYNQKFNGKATLTADKSSSTAYMQLSSLTSEDSAVYFCARGNYNYEYFDYWGQGVMVTVSSGGGGSGGGGSGGGGSDIQMTQSPASLSASLGETVSIECLASEDIYSYLAWYQQKPGKSPQLLIFAANRLQDGVPSRFSGSGSGTQFSLKISGMQPEDEGDYFCLQGSKFPYTFGPGTKLELNGGGGSQVQLVQSGGGVVQPGRSLRLSCKASGYTFTRYTMHWVRQAPGKGLEWIGYINPSRGYTNYNQKVKDRFTISRDNSKNTAFLQMDSLRPEDTGVYFCARYYDDHYSLDYWGQGTPVTVSSGGGGSGGGGSGGGGSDIQMTQSPSSLSASVGDRVTITCSASSSVSYMNWYQQTPGKAPKRWIYDTSKLASGVPSRFSGSGSGTDYTFTISSLQPEDIATYYCQQWSSNPFTFGQGTKLQITRHHHHHH
notes: B3 VH-VL scFv and hOKT3 VH-VL scFv in one polypeptide, no Fc
Take B1: the “EC50 of cytotoxic activity (calcein release, T-LAK effector cells)” value (from here on “EC50 … (calcein release, T-LAK effector cells)”) in assay [1] is 1530 pM. The Kd in assay [2] turned out to be 0.00655 µM.

B2: Antibody 23 (bispecific antibody)
heavy: QVQLQQSGAELVKPGSSVKISCKASGYTFTRNFIHWIKQQPGNGLEWIGWIFPGDGDTEYNQKFNGKATLTADKSSSTAYMQLSSLTSEDSAVYFCARGNYNYEYFDYWGQGVMVTVSSASTKGPSVFPLAPSSKSTSGGTAALGCLVKDYFPEPVTVSWNSGALTSGVHTFPAVLQSSGLYSLSSVVTVPSSSLGTQTYICNVNHKPSNTKVDKRVEPKSCHHHHHH
light: QVQLVQSGGGVVQPGRSLRLSCKASGYTFTRYTMHWVRQAPGKGLEWIGYINPSRGYTNYNQKVKDRFTISRDNSKNTAFLQMDSLRPEDTGVYFCARYYDDHYSLDYWGQGTPVTVSSGGGGSGGGGSGGGGSDIQMTQSPSSLSASVGDRVTITCSASSSVSYMNWYQQTPGKAPKRWIYDTSKLASGVPSRFSGSGSGTDYTFTISSLQPEDIATYYCQQWSSNPFTFGQGTKLQITRGGGGSDIQMTQSPASLSASLGETVSIECLASEDIYSYLAWYQQKPGKSPQLLIFAANRLQDGVPSRFSGSGSGTQFSLKISGMQPEDEGDYFCLQGSKFPYTFGPGTKLELNRTVAAPSVFIFPPSDEQLKSGTASVVCLLNNFYPREAKVQWKVDNALQSGNSQESVTEQDSKDSTYSLSSTLTLSKADYEKHKVYACEVTHQGLSSPVTKSFNRGEC
notes: B3 Fab with hOKT3 scFv fused to the light chain N-terminus
For the molecule B2, in assay [1], the “EC50 … (calcein release, T-LAK effector cells)” value was 370 pM. Moreover, the Kd in assay [2] is 0.00679 µM.

B3: Antibody 26 (bispecific antibody)
heavy: QVQLVQSGGGVVQPGRSLRLSCKASGYTFTRYTMHWVRQAPGKGLEWIGYINPSRGYTNYNQKVKDRFTISRDNSKNTAFLQMDSLRPEDTGVYFCARYYDDHYSLDYWGQGTPVTVSSGGGGSGGGGSGGGGSDIQMTQSPSSLSASVGDRVTITCSASSSVSYMNWYQQTPGKAPKRWIYDTSKLASGVPSRFSGSGSGTDYTFTISSLQPEDIATYYCQQWSSNPFTFGQGTKLQITRGGGGSQVQLQQSGAELVKPGSSVKISCKASGYTFTRNFIHWIKQQPGNGLEWIGWIFPGDGDTEYNQKFNGKATLTADKSSSTAYMQLSSLTSEDSAVYFCARGNYNYEYFDYWGQGVMVTVSSASTKGPSVFPLAPSSKSTSGGTAALGCLVKDYFPEPVTVSWNSGALTSGVHTFPAVLQSSGLYSLSSVVTVPSSSLGTQTYICNVNHKPSNTKVDKRVEPKSCHHHHHH
light: B2 light
notes: B3 Fab with hOKT3 scFv fused to the N-termini of both the heavy and the light chain
For B3, in assay [1], the “EC50 … (calcein release, T-LAK effector cells)” value is 39 pM. Also, the Kd in assay [2] turned out to be 0.0123 µM.

B4: Antibody 24 (bispecific antibody, human IgG1, kappa, L234A L235A)
heavy: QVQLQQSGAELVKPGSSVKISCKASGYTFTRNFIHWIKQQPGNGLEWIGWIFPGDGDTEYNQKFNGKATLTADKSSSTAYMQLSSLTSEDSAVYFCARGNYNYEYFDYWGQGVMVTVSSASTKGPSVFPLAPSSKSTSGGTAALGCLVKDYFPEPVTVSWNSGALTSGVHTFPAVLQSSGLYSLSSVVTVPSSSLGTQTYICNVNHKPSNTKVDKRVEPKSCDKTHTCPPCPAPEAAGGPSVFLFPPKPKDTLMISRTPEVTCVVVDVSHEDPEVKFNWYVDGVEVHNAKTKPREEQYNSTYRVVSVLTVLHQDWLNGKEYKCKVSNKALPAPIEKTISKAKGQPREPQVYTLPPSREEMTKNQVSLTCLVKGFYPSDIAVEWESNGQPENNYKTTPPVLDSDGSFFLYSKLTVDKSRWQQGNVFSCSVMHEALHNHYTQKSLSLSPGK
light: B2 light
notes: B3 IgG with hOKT3 scFv fused to the light chain N-terminus
With B4, in assay [1], the “EC50 … (calcein release, T-LAK effector cells)” value was 138 pM. This molecule also registered a Kd in assay [2] of 0.000531 µM.

B5: Antibody 27 (bispecific antibody)
heavy: QVQLQQSGAELVKPGSSVKISCKASGYTFTRNFIHWIKQQPGNGLEWIGWIFPGDGDTEYNQKFNGKATLTADKSSSTAYMQLSSLTSEDSAVYFCARGNYNYEYFDYWGQGVMVTVSSASTKGPSVFPLAPSSKSTSGGTAALGCLVKDYFPEPVTVSWNSGALTSGVHTFPAVLQSSGLYSLSSVVTVPSSSLGTQTYICNVNHKPSNTKVDKRVEPKSCGGGGSQVQLVQSGGGVVQPGRSLRLSCKASGYTFTRYTMHWVRQAPGKGLEWIGYINPSRGYTNYNQKVKDRFTISRDNSKNTAFLQMDSLRPEDTGVYFCARYYDDHYSLDYWGQGTPVTVSSGGGGSGGGGSGGGGSDIQMTQSPSSLSASVGDRVTITCSASSSVSYMNWYQQTPGKAPKRWIYDTSKLASGVPSRFSGSGSGTDYTFTISSLQPEDIATYYCQQWSSNPFTFGQGTKLQITRHHHHHH
light: B2 light
notes: B3 Fab with hOKT3 scFv at the heavy chain C-terminus and at the light chain N-terminus
Take B5: in assay [1], the “EC50 … (calcein release, T-LAK effector cells)” value was 36 pM. Also, binding in assay [2] was characterised by a dissociation constant (Kd) of 0.0136 µM.

B6: Antibody 28 (bispecific antibody)
chain 1: QVTLKESGPVLVKPTETLTLTCTVSGYSITSDYAWNWIRQPPGKALEWLAYISYSGSTSYNPSLKSRLSITKDTSKSQVVLTMTNMDPVDTATYYCARDPPYYYGSWGQGTTVTVSSASTKGPSVFPLAPSSKSTSGGTAALGCLVKDYFPEPVTVSWNSGALTSGVHTFPAVLQSSGLYSLSSVVTVPSSSLGTQTYICNVNHKPSNTKVDKRVEPKSCGGGGSQVQLVQSGGGVVQPGRSLRLSCKASGYTFTRYTMHWVRQAPGKGLEWIGYINPSRGYTNYNQKVKDRFTISRDNSKNTAFLQMDSLRPEDTGVYFCARYYDDHYSLDYWGQGTPVTVSSGGGGSGGGGSGGGGSDIQMTQSPSSLSASVGDRVTITCSASSSVSYMNWYQQTPGKAPKRWIYDTSKLASGVPSRFSGSGSGTDYTFTISSLQPEDIATYYCQQWSSNPFTFGQGTKLQITRHHHHHH
chain 2: DVVMTQSPLSLPVTLGQPASISCKSSQSLLDSDGKTYLNWLQQRPGQSPRRLIYLVSKLDSGVPDRFSGSGSGTDFTLKISRVEAEDVGVYHCWQGTHFPYTFGGGTKVEIKRTVAAPSVFIFPPSDEQLKSGTASVVCLLNNFYPREAKVQWKVDNALQSGNSQESVTEQDSKDSTYSLSSTLTLSKADYEKHKVYACEVTHQGLSSPVTKSFNRGEC
notes: format not described
For the molecule B6, the “EC50 … (calcein release, T-LAK effector cells)” value in assay [1] was 5430 pM. Further, the Kd in assay [2] is 1480 µM.

B7: Antibody 29 (bispecific antibody)
chain 1: QVQLVQSGAEVKKPGASVKVSCKASGYSFTGYYIHWVRQAPGQGLEWIGYISAYNGASSYNQKFKGRATFTVDTSISTAYMELSRLRSDDTAVYYCASSMDYWGQGTLVTVSSASTKGPSVFPLAPSSKSTSGGTAALGCLVKDYFPEPVTVSWNSGALTSGVHTFPAVLQSSGLYSLSSVVTVPSSSLGTQTYICNVNHKPSNTKVDKRVEPKSCGGGGSQVQLVQSGGGVVQPGRSLRLSCKASGYTFTRYTMHWVRQAPGKGLEWIGYINPSRGYTNYNQKVKDRFTISRDNSKNTAFLQMDSLRPEDTGVYFCARYYDDHYSLDYWGQGTPVTVSSGGGGSGGGGSGGGGSDIQMTQSPSSLSASVGDRVTITCSASSSVSYMNWYQQTPGKAPKRWIYDTSKLASGVPSRFSGSGSGTDYTFTISSLQPEDIATYYCQQWSSNPFTFGQGTKLQITRHHHHHH
chain 2: B6 chain 2 with R50K, G105Q, V109L
notes: format not described
For B7, the “EC50 … (calcein release, T-LAK effector cells)” value in assay [1] is 634 pM. Besides, binding in assay [2] was put at a Kd of 5.7 µM.

B8: B3 chimeric antibody (antibody, human IgG1, kappa, L234A L235A)
heavy: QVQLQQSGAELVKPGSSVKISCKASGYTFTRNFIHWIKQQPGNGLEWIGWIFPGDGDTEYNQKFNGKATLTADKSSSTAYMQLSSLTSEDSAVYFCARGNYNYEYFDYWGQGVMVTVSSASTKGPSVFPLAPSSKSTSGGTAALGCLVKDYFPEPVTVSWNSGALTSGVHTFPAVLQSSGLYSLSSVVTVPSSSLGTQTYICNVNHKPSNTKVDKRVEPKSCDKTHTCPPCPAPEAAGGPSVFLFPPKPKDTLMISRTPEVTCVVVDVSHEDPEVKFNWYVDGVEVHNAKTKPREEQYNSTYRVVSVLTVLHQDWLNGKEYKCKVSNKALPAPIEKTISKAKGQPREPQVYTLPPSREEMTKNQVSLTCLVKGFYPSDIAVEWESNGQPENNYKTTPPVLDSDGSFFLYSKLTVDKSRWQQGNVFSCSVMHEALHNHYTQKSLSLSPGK
light: DIQMTQSPASLSASLGETVSIECLASEDIYSYLAWYQQKPGKSPQLLIFAANRLQDGVPSRFSGSGSGTQFSLKISGMQPEDEGDYFCLQGSKFPYTFGPGTKLELNRTVAAPSVFIFPPSDEQLKSGTASVVCLLNNFYPREAKVQWKVDNALQSGNSQESVTEQDSKDSTYSLSSTLTLSKADYEKHKVYACEVTHQGLSSPVTKSFNRGEC
notes: monospecific anti-mutant CALR antibody, no CD3 arm
Take B8: the “EC50 … (calcein release, T-LAK effector cells)” value in assay [1] was above 10000 pM. In assay [2], this molecule had a Kd below 1e-06 µM.

B9: Antibody 13 (bispecific antibody, human IgG1, kappa, L234A L235A)
heavy 1: not shown
heavy 2: QVQLQQSGAELVKPGSSVKISCKASGYTFTRNFIHWIKQQPGNGLEWIGWIFPGDGDTEYNQKFNGKATLTADKSSSTAYMQLSSLTSEDSAVYFCARGNYNYEYFDYWGQGVMVTVSSASTKGPSVFPLAPSSKSTSGGTAALGCLVKDYFPEPVTVSWNSGALTSGVHTFPAVLQSSGLYSLSSVVTVPSSSLGTQTYICNVNHKPSNTKVDKRVEPKSCDKTHTCPPCPAPEAAGGPSVFLFPPKPKDTLMISRTPEVTCVVVDVSHEDPEVKFNWYVDGVEVHNAKTKPREEQYNSTYRVVSVLTVLHQDWLNGKEYKCKVSNKALPAPIEKTISKAKGQPREPQVCTLPPSREEMTKNQVSLSCAVKGFYPSDIAVEWESNGQPENNYKTTPPVLDSDGSFFLVSKLTVDKSRWQQGNVFSCSVMHEALHNHYTQKSLSLSPGKGGGGSQVQLVQSGGGVVQPGRSLRLSCKASGYTFTRYTMHWVRQAPGKGLEWIGYINPSRGYTNYNQKVKDRFTISRDNSKNTAFLQMDSLRPEDTGVYFCARYYDDHYSLDYWGQGTPVTVSSGGGGSGGGGSGGGGSDIQMTQSPSSLSASVGDRVTITCSASSSVSYMNWYQQTPGKAPKRWIYDTSKLASGVPSRFSGSGSGTDYTFTISSLQPEDIATYYCQQWSSNPFTFGQGTKLQITR
light: B8 light
notes: B3 IgG with knob-into-hole heavy chains, hOKT3 scFv fused to the C-terminus of one heavy chain
In the case of B9, in assay [1], the “EC50 … (calcein release, T-LAK effector cells)” value was 4470 pM. This molecule also returned a Kd in assay [2] below 1e-06 µM.

B10: Antibody 14 (bispecific antibody, human IgG1, kappa, L234A L235A)
heavy: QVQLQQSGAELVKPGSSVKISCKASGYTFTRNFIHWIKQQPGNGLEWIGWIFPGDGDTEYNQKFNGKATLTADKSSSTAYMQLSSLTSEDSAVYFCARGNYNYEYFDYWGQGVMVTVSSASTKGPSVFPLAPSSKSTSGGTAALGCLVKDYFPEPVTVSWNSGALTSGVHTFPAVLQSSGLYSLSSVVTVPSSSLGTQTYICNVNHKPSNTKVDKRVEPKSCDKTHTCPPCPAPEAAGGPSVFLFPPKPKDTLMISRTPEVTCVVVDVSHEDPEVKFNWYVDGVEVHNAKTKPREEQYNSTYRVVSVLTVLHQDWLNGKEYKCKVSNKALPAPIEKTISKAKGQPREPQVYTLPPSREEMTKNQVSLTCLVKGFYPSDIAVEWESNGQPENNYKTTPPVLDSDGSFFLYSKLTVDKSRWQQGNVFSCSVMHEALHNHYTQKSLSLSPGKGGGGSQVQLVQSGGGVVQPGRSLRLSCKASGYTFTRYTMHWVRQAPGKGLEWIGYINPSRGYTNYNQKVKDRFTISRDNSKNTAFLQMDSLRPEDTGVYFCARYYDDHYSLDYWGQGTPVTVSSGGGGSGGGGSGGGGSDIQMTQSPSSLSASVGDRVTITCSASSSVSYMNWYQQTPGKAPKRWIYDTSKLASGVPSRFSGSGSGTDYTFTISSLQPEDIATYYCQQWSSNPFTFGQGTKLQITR
light: B8 light
notes: B3 IgG with hOKT3 scFv fused to the heavy chain C-terminus
For the molecule B10, in assay [1], the “EC50 … (calcein release, T-LAK effector cells)” value is 989 pM. In assay [2], this molecule gave a Kd below 1e-06 µM.
